This is an account of results in paper PMC10338342 (2023).

Assay [1] has as its target T1, nucleosome core particle: human histone octamer (H2A, H2B, H3.1, H4) wrapped by DNA (human, UniProt P04908 1-130; P06899 1-126; P68431 1-136; P62805 1-103). The experiment in a line: FRET; NCP SHL-6.2; competition with His-MYC-MAX (800 nM).
Assay [2] addresses T1, nucleosome core particle: human histone …. The experiment in a line: FRET; NCP SHL+5.8; competition with His-MYC-MAX (625 nM).

B1: CLOCK-BMAL1 bHLH PAS-AB heterodimer with BMAL1 R173A (complex)
chain 1: VEEDDKDKAKRVSRNKSEKKRRDQFNVLIKELGSMLPGNARKMDKSTVLQKSIDFLRKHKETTAQSDASEIRQDWKPTFLSNEEFTQLMLEALDGFFLAIMTDGSIIYVSESVTSLLEHLPSDLVDQSIFNFIPEGEHSEVYKILSTHLLESDSLTPEYLKSKNQLEFCCHMLRGTIDPKEPSTYEYVRFIGNFKSLTSVSTSTHNGFEGTIQRTHRPSYEDRVCFVATVRLATPQFIKEMCTVEEPNEEFTSRHSLEWKFLFLDHRAPPIIGYLPFEVLGTSGYDYYHVDDLENLAKCHEHLMQYGKGKSCYYRFLTKGQQWIWLQTHYYITYHQWNSRPEFIVCTHTVVSYAEVRAERRRELGIEESL
chain 2: not shown
In the case of B1, the half-inhibitory concentration (IC50) in assay [1] is > 3000 nM.

B2: CLOCK-BMAL1 bHLH PAS-AB heterodimer (complex)
chain 1: VEEDDKDKAKRVSRNKSEKKRRDQFNVLIKELGSMLPGNARKMDKSTVLQKSIDFLRKHKETTAQSDASEIRQDWKPTFLSNEEFTQLMLEALDGFFLAIMTDGSIIYVSESVTSLLEHLPSDLVDQSIFNFIPEGEHSEVYKILSTHLLESDSLTPEYLKSKNQLEFCCHMLRGTIDPKEPSTYEYVRFIGNFKSLTSVSTSTHNGFEGTIQRTHRPSYEDRVCFVATVRLATPQFIKEMCTVEEPNEEFTSRHSLEWKFLFLDHRAPPIIGYLPFEVLGTSGYDYYHVDDLENLAKCHEHLMQYGKGKSCYYRFLTKGQQWIWLQTHYYITYHQWNSRPEFIVCTHTVVSYAEVRAERRRELGIEESL
chain 2: not shown
As to B2, the values for the IC50 in assay [1] and in assay [2] were 1180 nM and 2320 nM, respectively.

B3: CLOCK-BMAL1 bHLH PAS-AB heterodimer with BMAL1 Q385A (complex)
chain 1: VEEDDKDKAKRVSRNKSEKKRRDQFNVLIKELGSMLPGNARKMDKSTVLQKSIDFLRKHKETTAQSDASEIRQDWKPTFLSNEEFTQLMLEALDGFFLAIMTDGSIIYVSESVTSLLEHLPSDLVDQSIFNFIPEGEHSEVYKILSTHLLESDSLTPEYLKSKNQLEFCCHMLRGTIDPKEPSTYEYVRFIGNFKSLTSVSTSTHNGFEGTIQRTHRPSYEDRVCFVATVRLATPQFIKEMCTVEEPNEEFTSRHSLEWKFLFLDHRAPPIIGYLPFEVLGTSGYDYYHVDDLENLAKCHEHLMQYGKGKSCYYRFLTKGQQWIWLQTHYYITYHQWNSRPEFIVCTHTVVSYAEVRAERRRELGIEESL
chain 2: not shown
Turning to B3, the half-inhibitory concentration (IC50) in assay [1] is > 3000 nM.

By IC50 is commonly meant the concentration that gives 50% inhibition.
